In the supplement of paper PMC12042874:
± gives the uncertainty stated by the source.

Experiment: amyloid nucleation score (Sup35N fusion, yeast selection) (log enrichment); library NNK1; higher = more nucleation; inactive = no reads after selection
How it was run: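 On medium lacking adenine and uracil, psi-negative yeast expressing peptides of 20 random codons fused to Sup35N were grown 7 days at 30°C after a 24-hour induction with 100 μM copper sulfate. Illumina sequencing of input and output plasmid inserts gave the reads, and sequences under 100 input reads were excluded. The nucleation score is the DiMSum log enrichment of output over input reads, centred on the mode score of non-aggregating sequences.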

In the case of FTSLWDCALTHVVTFPAILG, the amyloid nucleation score is reported as -1.36 ± 1.8.
Substance FTVARYKGIYNFSQGRCA has an amyloid nucleation score of -0.33 ± 1.2.
FTVVISSLNEGEEHRVWCKF gave an amyloid nucleation score of -0.444 ± 1.2.
Substance FTWERSH has an amyloid nucleation score of 0.655 ± 0.68.
FTWWHIRGCGCCVACEGHRS showed an amyloid nucleation score of 0.05 ± 0.65.
With FVADGLAPFLPMTVPLVGIK the amyloid nucleation score was -1.06 ± 2.4.
For FVCYSLNSSSFMIPYWILLK, the amyloid nucleation score was -0.293 ± 0.46.
In the case of FVFFSLGHLAFFARDRYSPW, the amyloid nucleation score is reported as 2.38 ± 0.094.
FVGRCLNMKTCRRCLLSWDN gave an amyloid nucleation score of 0.128 ± 1.6.
FVIDV gave an amyloid nucleation score of -0.568 ± 0.98.
Work on FVLDNRKFYVCFVGYRFGLF yielded an amyloid nucleation score of 4.83 ± 0.051.
Work on FVLERTGIRLLCL yielded an amyloid nucleation score of 0.363 ± 0.38.
FVLTYDLMLLQSGFNSRL showed an amyloid nucleation score of 0.756 ± 0.87.
For FVLVMLNMQ, the amyloid nucleation score was 4.4 ± 0.093.
Substance FVMLFSCRST has an amyloid nucleation score of 0.38 ± 0.76.
With FVSIRCVKYASYISHSHGLV the amyloid nucleation score was “inactive”.
FVSSSKLIGCLVRHQKMANR showed an amyloid nucleation score of 0.258 ± 0.59.
FVSYTSP gave an amyloid nucleation score of -0.079 ± 0.33.
FVTDMAYNMMESGLHT gave an amyloid nucleation score of 6.44 ± 0.044.
With FVTQAGRGMHR the amyloid nucleation score was 0.682 ± 0.75.
In the case of FVVGSRFMKIHVSGGDLGFF, the amyloid nucleation score is reported as -0.144 ± 0.39.
In the case of FVVSDIMGDLRKM, the amyloid nucleation score is reported as 1.38 ± 0.71.
Substance FVVSDTGKVKWGMAQ has an amyloid nucleation score of 2.68 ± 0.14.
Substance FVYCNAAIAISSFGTWEPKG has an amyloid nucleation score of 2.9 ± 0.1.
FWATRVTWLDEMLIYYCLVN gave an amyloid nucleation score of 0.155 ± 0.36.
For FWISRYVLQKDWKGWICTEL, the amyloid nucleation score was -0.338 ± 0.83.
Work on FWLILFIVFIKYMNILFRTC yielded an amyloid nucleation score of 1.08 ± 0.27.
With FWPGFSWSIKLQLTFG the amyloid nucleation score was -0.326 ± 0.3.
Substance FWQIAGRGFGRYG has an amyloid nucleation score of -0.258 ± 0.45.
FWTAPKLARDMSVLVTVFFY showed an amyloid nucleation score of -1.4 ± 2.1.
With FWTKSGSEEIITMVSTVRWR the amyloid nucleation score was -0.749 ± 1.1.
Substance FWWIGYKTSSDGPRAVAIWC has an amyloid nucleation score of -0.137 ± 0.26.
In the case of FYAVVEQIKFMRSLNLNLLN, the amyloid nucleation score is reported as -0.08 ± 0.36.
Substance FYDPALMSITNSD has an amyloid nucleation score of 1.73 ± 0.15.
FYGCNSRA showed an amyloid nucleation score of -0.037 ± 0.97.
Work on FYLRSSTNEPRENNVNLALY yielded an amyloid nucleation score of -0.345 ± 1.7.
For FYPFLQR, the amyloid nucleation score was 1.48 ± 0.63.
In the case of FYQTS, the amyloid nucleation score is reported as 0.634 ± 0.4.
For FYRASKDCLAKVRRVGC, the amyloid nucleation score was 0.482 ± 0.59.
Work on FYRSLVVNM yielded an amyloid nucleation score of -0.081 ± 0.96.
Work on FYSNWRYDGYWDDLGMNIIV yielded an amyloid nucleation score of -0.372 ± 0.4.
For FYTVSCLVCLGL, the amyloid nucleation score was 8.507 ± 0.047.
In the case of FYVRCREMSRGVWWSTSVR, the amyloid nucleation score is reported as -0.188 ± 0.34.
Substance GACYNSGCCFNPLDWYK has an amyloid nucleation score of 0.904 ± 0.57.
For GAFNQSMDSCGFMFPHNMRP, the amyloid nucleation score was 0.724 ± 1.
In the case of GAIFYGVCCIRPNWNVVSTS, the amyloid nucleation score is reported as 5.69 ± 0.059.
With GALCCLCRSNHYVLQCGVKC the amyloid nucleation score was 1.47 ± 0.7.
GALGWWSSFVCEEAGKLTLR gave an amyloid nucleation score of 0.792 ± 0.48.
GASFVGTGKWVLTGWKTRRF showed an amyloid nucleation score of 0.124 ± 0.97.
Work on GAYYGRSSKELGNNEGTGTG yielded an amyloid nucleation score of 0.51 ± 0.52.
GCAQRKVAPWNRGLRQ gave an amyloid nucleation score of -0.501 ± 0.62.
In the case of GCFEFVCEVAVGVSLDYSYL, the amyloid nucleation score is reported as -0.085 ± 0.28.
Work on GCILHFHSGRGYIGSRMVGW yielded an amyloid nucleation score of 1.31 ± 0.32.
With GCKSGDGQRVGVLLNQNCTR the amyloid nucleation score was 0.863 ± 0.56.
In the case of GCLKTVGCA, the amyloid nucleation score is reported as -0.22 ± 0.64.
In the case of GCNMII, the amyloid nucleation score is reported as -0.34 ± 0.38.
In the case of GCQLLYAKHIQSIMSQRPKN, the amyloid nucleation score is reported as 0.374 ± 0.65.
GCRPG gave an amyloid nucleation score of -0.151 ± 0.59.
Substance GCSLWVGVLCKNCFFDDLIM has an amyloid nucleation score of 5.807 ± 0.055.
For GCSVAASSESNNRSQQVGLT, the amyloid nucleation score was 1.02 ± 0.84.
GCVSVPYQLPPLISYGLVN showed an amyloid nucleation score of -0.123 ± 0.62.
For GDISYVSASLQLFNWVLSCV, the amyloid nucleation score was 3.97 ± 0.13.
With GDLRSSILRLPTWRLWWITT the amyloid nucleation score was 0.174 ± 0.29.
In the case of GDRVAEFQFPLSYTRPELSL, the amyloid nucleation score is reported as 0.046 ± 0.72.
With GDSLTLTLFRIIYIGFRTDY the amyloid nucleation score was -1.03 ± 0.44.
In the case of GEDGG, the amyloid nucleation score is reported as 0.148 ± 0.52.
GEFTRGDTSKWFLLDK gave an amyloid nucleation score of 0.577 ± 0.56.
For GELTIYCSVVPYVVSR, the amyloid nucleation score was 0.415 ± 0.44.
In the case of GETRGVPPNFFTPIIQLSSA, the amyloid nucleation score is reported as “inactive”.
GEYLRLSIWGLDKDNKGVQ showed an amyloid nucleation score of -0.073 ± 0.42.
With GFFLVLYHCFYWISRVR the amyloid nucleation score was 0.737 ± 0.58.
GFGAQPWRARSMFYK gave an amyloid nucleation score of 0.566 ± 0.67.
In the case of GFHEIMLYYSYIKVLVIDSH, the amyloid nucleation score is reported as 0.387 ± 0.75.
In the case of GFLCQSRVLAML, the amyloid nucleation score is reported as “inactive”.
Work on GFPLQSKDTARNIGTQFLEW yielded an amyloid nucleation score of -0.003 ± 0.4.
GFRFEMSRQIHKWQSSCLLY gave an amyloid nucleation score of 0.489 ± 0.6.
In the case of GFSANGLPCGAEAGEVFYTV, the amyloid nucleation score is reported as -0.725 ± 0.81.
Work on GFSRYSPRSKFFNSLVLKSS yielded an amyloid nucleation score of -0.171 ± 1.1.
GFSWSNITKCGWACGSDGMK showed an amyloid nucleation score of 0.676 ± 0.45.
With GFTFVLLLSLGLVGWCETVK the amyloid nucleation score was -0.511 ± 0.68.
For GFYGRL, the amyloid nucleation score was -0.774 ± 0.74.
In the case of GFYLRYYLGISVRHYNHVIW, the amyloid nucleation score is reported as 1.19 ± 0.72.
In the case of GFYPHANLTMFRALNKCGEV, the amyloid nucleation score is reported as 0.501 ± 0.53.
In the case of GFYSLHTALARIPHEHAVFF, the amyloid nucleation score is reported as -0.018 ± 0.61.
Work on GGECYLLEYLSMSGVYCFRI yielded an amyloid nucleation score of -1.25 ± 1.4.
Work on GGFFKRL yielded an amyloid nucleation score of 0.161 ± 0.36.
GGLGVDATGYHVSTEGEELE showed an amyloid nucleation score of -0.275 ± 0.43.
